One block for each binder: values may come before it. Bridge positions count the residues as written; N and C are the ends. Square brackets hold non-standard residues; d marks the D form. Ends that are not written are not given here. Lys(Me3) = C[N+](C)(C)CCCC[C@H](N)C(=O)O
T1: KDM7A (KIAA1718) PHD-finger
T1 chain: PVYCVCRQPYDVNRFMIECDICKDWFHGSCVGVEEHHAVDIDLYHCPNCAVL

T2: DIDO1 PHD-finger
T2 chain: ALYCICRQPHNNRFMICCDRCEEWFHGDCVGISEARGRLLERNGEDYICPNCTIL

T3: ING2 PHD-finger
T3 chain: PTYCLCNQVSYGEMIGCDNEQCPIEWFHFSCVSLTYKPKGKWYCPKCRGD

T4: KDM7C (PHF2) PHD-finger
T4 chain: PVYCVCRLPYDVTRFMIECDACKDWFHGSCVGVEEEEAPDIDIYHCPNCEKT

T5: TAF3 PHD-finger
T5 chain: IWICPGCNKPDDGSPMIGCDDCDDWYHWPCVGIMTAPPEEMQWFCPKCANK

T6: KDM5A PHD3 PHD-finger
T6 chain: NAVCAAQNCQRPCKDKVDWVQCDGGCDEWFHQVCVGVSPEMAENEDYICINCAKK

T7: KDM7B PHD-finger (UniProt Q9UPP1-2 1-447)
T7 chain: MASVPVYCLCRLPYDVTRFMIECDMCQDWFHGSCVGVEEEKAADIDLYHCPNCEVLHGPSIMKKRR

B1: KDM7B (PHF8, JHDM1F) dual domain (PHD-JmjC) (domain or fragment)
chain: MASVPVYCLCRLPYDVTRFMIECDMCQDWFHGSCVGVEEEKAADIDLYHCPNCEVLHGPSIMKKRRGSSKGHDTHKGKPVKTGSPTFVRELRSRTFDSSDEVILKPTGNQLTVEFLEENSFSVPILVLKKDGLGMTLPSPSFTVRDVEHYVGSDKEIDVIDVTRQADCKMKLGDFVKYYYSGKREKVLNVISLEFSDTRLSNLVETPKIVRKLSWVENLWPEECVFERPNVQKYCLMSVRDSYTDFHIDFGGTSVWYHVLKGEKIFYLIRPTNANLTLFECWSSSSNQNEMFFGDQVDKCYKCSVKQGQTLFIPTGWIHAVLTPVDCLAFGGNFLHSLNIEMQLKAYEIEKRLSTADLFRFPNFETICWYVGKHILDIFRGLRENRRHPASYLVHGGKALNLAFRAWTRKEALPDHEDEIPETVRTVQLIKDLAREIRLVEDIFQQN

Experiments:
[1] = target: KDM7A (KIAA1718) dual domain; assay: ITC
KDM7A (KIAA1718) dual domain, sequence (chain, as listed by the source): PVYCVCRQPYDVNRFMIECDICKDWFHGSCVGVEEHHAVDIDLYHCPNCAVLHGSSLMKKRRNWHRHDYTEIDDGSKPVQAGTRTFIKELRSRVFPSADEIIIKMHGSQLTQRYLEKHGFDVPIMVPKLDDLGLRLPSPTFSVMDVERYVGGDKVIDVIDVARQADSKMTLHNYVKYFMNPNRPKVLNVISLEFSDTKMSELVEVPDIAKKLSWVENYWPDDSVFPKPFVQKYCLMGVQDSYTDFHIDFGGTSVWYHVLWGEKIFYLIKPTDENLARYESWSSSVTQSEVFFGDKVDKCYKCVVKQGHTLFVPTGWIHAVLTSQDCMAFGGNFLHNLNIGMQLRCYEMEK

[2] = target: T1, KDM7A (KIAA1718) PHD-finger; assay: ITC
[3] = target: T2, DIDO1 PHD-finger; assay: BLI
[4] = target: T3, ING2 PHD-finger; assay: BLI
[5] = target: SPIN1 triple tudor domain; assay: BLI
SPIN1 triple tudor domain, sequence (chain, as listed by the source): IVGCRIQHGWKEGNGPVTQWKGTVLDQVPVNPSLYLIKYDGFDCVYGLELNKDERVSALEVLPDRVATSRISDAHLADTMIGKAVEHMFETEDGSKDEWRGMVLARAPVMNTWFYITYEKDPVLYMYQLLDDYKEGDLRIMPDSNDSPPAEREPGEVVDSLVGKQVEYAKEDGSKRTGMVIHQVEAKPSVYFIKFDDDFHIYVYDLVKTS

[6] = target: T4, KDM7C (PHF2) PHD-finger; assay: BLI
[7] = target: KDM7A (KIAA1718) dual domain; assay: BLI
[8] = target: T1, KDM7A (KIAA1718) PHD-finger; assay: BLI
[9] = target: T5, TAF3 PHD-finger; assay: BLI
[10] = target: T1, KDM7A (KIAA1718) PHD-finger; assay: ITC
[11] = target: B1
[12] = target: T3, ING2 PHD-finger
[13] = target: SPIN1 triple tudor domain
[14] = target: T4, KDM7C (PHF2) PHD-finger
[15] = target: KDM7A (KIAA1718) dual domain
[16] = target: T1, KDM7A (KIAA1718) PHD-finger
[17] = target: T5, TAF3 PHD-finger
[18] = target: T6, KDM5A PHD3 PHD-finger
[19] = target: T7, KDM7B PHD-finger; assay: ITC; His-Trx-tagged PHD
[20] = target: OC3; assay: ITC
[21] = target: T7, KDM7B PHD-finger

Kd [1]: 31.6 nM
Kd [2]: 31.6 nM
Kd [3]: > 1000 nM
Kd [4]: > 1000 nM
Kd [5]: > 1000 nM
Kd [6]: 1 nM
Kd [7]: 39.8 nM
Kd [8]: 20 nM
Kd [9]: > 1000 nM
Kd [10]: 33 nM
IC50 [11]: 100 nM
IC50 [12]: > 5010 nM
IC50 [13]: > 2000 nM
IC50 [14]: 25.1 nM
IC50 [15]: 126 nM
IC50 [16]: 63.1 nM
IC50 [17]: > 5010 nM
IC50 [18]: > 5010 nM
Kd [19]: 8 nM
Binder: {CH2CO}-YYLTHPYPSVFRTC (thioether N-14) [OC9, de novo cyclic peptide from mRNA display]

Binder: B1
Kd [20]: 163 nM

IC50 [21]: 45 nM
Binder: YYL[dA]HPYPSVFRTC (ends and bridges not checked) [OC9 with T4 replaced with D-alanine]

IC50 [21]: 234 nM
Binder: YYLTHPYPS[Lys(Me3)]FRTC (ends and bridges not checked) [OC9 V10Kme3]

IC50 [21]: 20 nM
Binder: YYLT[dA]PYPSVFRTC (ends and bridges not checked) [OC9 with H5 replaced with D-alanine]
